Reference: US20040259787A1 (published 2004)

Molecular target: T1, C1q (UniProt P02745 23-245; P02746 28-253; P02747 29-245, radioiodinated (Bolton & Hunter) in the assay of FIG. 2)
T1 construct: mature; Purified native C1q; also called native fluid-phase C1q; radioiodinated C1q
Assay: solid-phase domain, radioiodinated C1q, low salt
Description: Microtitre plates were coated with the N-, P-, C- and CUB-domains and with three controls, cC1qR, BSA and Thioredoxin, (8 mg/ml in 35 mM NaHCO3, 15 mM Na2CO3 pH 9.6) for 2 hr at 37° C. Non-specific interactions were blocked by incubation with 10 mM potassium phosphate, 0.5 mM EDTA pH 7.4 containing BSA (10 mg/ml). Any free —SH groups in the samples, due to the presence of the thioredoxin fusion protein, were blocked by a brief washing step using the phosphate buffer containing 2 mM iodoacetamide. […] Wells were washed three times with phosphate buffer and bound radioactivity eluted with 100 ml 4M NaOH and measured.

T1 sequence (P02745 23-245, chain 1 of 3): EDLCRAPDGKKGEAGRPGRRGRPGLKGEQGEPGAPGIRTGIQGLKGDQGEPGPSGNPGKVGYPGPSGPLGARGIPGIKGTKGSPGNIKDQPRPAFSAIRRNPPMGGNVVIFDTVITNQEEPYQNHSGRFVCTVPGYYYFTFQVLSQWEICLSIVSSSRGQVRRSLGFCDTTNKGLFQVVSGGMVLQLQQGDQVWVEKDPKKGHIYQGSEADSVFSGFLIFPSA
T1 sequence (P02746 28-253, chain 2 of 3): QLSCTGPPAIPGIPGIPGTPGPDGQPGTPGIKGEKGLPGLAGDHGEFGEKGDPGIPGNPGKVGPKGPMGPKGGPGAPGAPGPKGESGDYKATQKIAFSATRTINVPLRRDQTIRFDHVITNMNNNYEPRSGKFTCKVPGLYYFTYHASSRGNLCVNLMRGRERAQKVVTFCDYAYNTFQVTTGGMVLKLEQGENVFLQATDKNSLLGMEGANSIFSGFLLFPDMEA
T1 sequence (P02747 29-245, chain 3 of 3): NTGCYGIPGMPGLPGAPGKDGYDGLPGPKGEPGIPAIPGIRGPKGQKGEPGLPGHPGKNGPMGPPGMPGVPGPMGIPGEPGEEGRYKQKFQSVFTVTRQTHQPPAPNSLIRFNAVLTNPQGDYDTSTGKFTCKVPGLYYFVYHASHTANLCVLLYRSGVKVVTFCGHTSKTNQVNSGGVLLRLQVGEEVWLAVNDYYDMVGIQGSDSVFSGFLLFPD

binding result: no binding
B1: recombinant C-domain of human cC1qR/CRT, thioredoxin fusion protein (other)
chain: DNFGVLGLDLWQVKSGTIFDNFLITNDEAYAEEFGNETWGVTKAAEKQMKDKQDEEQRLKEEEEDKKRKEEEEAEDKEDDEDKDEDEEDEEDKEEDEEEDVPGQAKDEL
notes: not shown: thioredoxin fusion partner from plasmid pTrxfus (Invitrogen), expressed in E. coli
